Laboratory results: patent US9133440B2, “Generation of new pancreatic beta cells” (priority 2012, dated 2015)

Experiments:
[1] = biological target: 20 amino acid Reg Receptor sequence (SEQ ID NO:9) (amino acids 117-136) (Homo sapiens, UniProt O43909); assay: Enzyme ImmunoAssay titers of polyclonal antibodies raised to the 20-amino acid Reg Receptor sequence; type: binding; conditions: reference range of FIG. 13; bleed after day 0 and day 21 boosts
Experimental: FIGS. 11-13 were from studies undertaken to develop stimulatory antibodies to the Reg Receptor to accelerate the progression of beta cell formation by stimulating potential binding sites on the Reg Receptor. For the production of […] antibodies, many sequences were evaluated within the N-terminal portion of Reg receptor (amino acids 1-332) (SEQ ID NO:13), which is the amino acid region believed to be the binding domain for the Reg peptides within the Reg receptor that is not contained in the other members of the of Exostoses family, and thus is hypothesized to be the Reg binding domain.
Data sets were taken from the bleed after the day 0 and day 21 boosts. The animals were injected with a peptide of SEQ ID NO: 9 and were conjugated to keyhole limpet hemocyanin (KLH). […] At a dilution of 1:750,000, the absorbance fell within a range of 0.45 to 0.9. […]
Previous studies have identified that Reg proteins and peptides act through a 919-amino acid cell-surface protein. […] For the production of stimulatory antibodies, sequences were evaluated within the N-terminal portion of the putative Reg Receptor (amino acids 1-332) (SEQ ID NO:13), which is the amino acid region of Reg Receptor that is not contained in the other members of the of Exostoses family, and thus is hypothesized to be the Reg binding domain.

Reg Receptor [2] = biological target: T1, Reg Receptor (Homo sapiens, UniProt O43909); assay: Direct binding of Perle peptides to purified Reg Receptor coated on 96 well plate (strep-HRP, absorbance at 405 nm); design: FLAG; made in house; host or cells: 293T cells (transient transfection, harvested after 72 hours); conditions: FIG. 9; for strength of binding to the Reg Receptor relative to the other peptides tested: comparison among 7-, 8-, 9-amino acid Perle peptides, HIP and scrambled control; for direct binding to the Reg Receptor: purified Reg Receptor coated on plate, peptides bound 1 hour at room temperature, absorbance at 405 nm
T1 sequence (O43909 1-919): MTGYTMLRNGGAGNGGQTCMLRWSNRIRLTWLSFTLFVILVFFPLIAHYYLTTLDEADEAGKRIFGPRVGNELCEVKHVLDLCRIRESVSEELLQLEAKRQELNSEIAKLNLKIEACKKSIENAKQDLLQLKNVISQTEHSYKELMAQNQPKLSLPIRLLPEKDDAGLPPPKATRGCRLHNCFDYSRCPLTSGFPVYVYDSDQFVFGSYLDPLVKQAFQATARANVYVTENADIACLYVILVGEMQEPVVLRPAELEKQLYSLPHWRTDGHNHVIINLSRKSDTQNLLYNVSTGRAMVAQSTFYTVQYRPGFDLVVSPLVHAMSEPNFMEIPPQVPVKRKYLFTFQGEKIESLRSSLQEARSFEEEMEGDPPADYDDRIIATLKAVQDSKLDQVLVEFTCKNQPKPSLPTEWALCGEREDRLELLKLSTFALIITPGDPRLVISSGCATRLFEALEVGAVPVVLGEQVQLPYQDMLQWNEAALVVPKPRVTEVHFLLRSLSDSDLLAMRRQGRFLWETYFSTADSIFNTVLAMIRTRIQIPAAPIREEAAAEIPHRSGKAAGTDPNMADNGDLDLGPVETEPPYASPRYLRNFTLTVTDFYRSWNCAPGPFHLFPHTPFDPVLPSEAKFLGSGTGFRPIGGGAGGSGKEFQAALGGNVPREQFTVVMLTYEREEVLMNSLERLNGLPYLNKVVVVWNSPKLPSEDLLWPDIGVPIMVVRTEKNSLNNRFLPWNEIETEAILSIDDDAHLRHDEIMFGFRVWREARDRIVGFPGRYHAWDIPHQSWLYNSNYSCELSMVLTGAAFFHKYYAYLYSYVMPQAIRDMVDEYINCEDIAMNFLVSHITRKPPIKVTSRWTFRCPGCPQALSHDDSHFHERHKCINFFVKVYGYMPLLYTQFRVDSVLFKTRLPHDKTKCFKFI
Experimental: Cells were collected after 72 hours. The Reg Receptor was tagged with FLAG epitope and FLAG resin was utilized to purify out the Reg Receptor. […] The Reg Receptor was purified by Anti-Flag M2 affinity gel. Target protein was confirmed by 4-12% SDS-PAGE and Western-blot. […] FIGS. 7b and 7c are the Western blot results showing that the purified protein is the Reg Receptor using the antibody to the Reg Receptor (CD104). The Reg Receptor is shown In FIG. 7 to be highly purified.
Plates were coated overnight coated plate and washed three times with 0.5×TBST and blocked with 3% BSA and rotated at room temperature for 1 hour. After blocking, plates were washed three times with 0.5×TBST. Peptides were then diluted with TBST buffer and added into wells in duplicate then left to bind at room temperature for 1 hour. After washing three times, 100 ng/ml strep-HRP was added into plate at 100 ul/well, and rotated at room temperature for one hour. ABST reagents were warmed to room temperature, mixed immediately before using. Then 100 ul was added to each well and read after 25 minutes reaction and absorbance was evaluated at 405 nm by a Spectramax M5 plate reader. The purified Reg Receptor was coated on plates. Then plates were blocked with BSA solution. Subsequently, the Perle peptides were added into the wells, and HRP-straptavidin and its substrates were added into the wells to reveal the interaction between Receptor and the Perle peptide.

Reg Receptor [3] = biological target: T1, Reg Receptor; assay: Western blot analysis of Reg Receptor translocation from cytoplasmic membrane to nucleus in human extra-islet ductal cells; type: cell-based; conditions: Perle peptide 167 nM once a day for four days, cytosolic and nuclear fractions, shorter and longer exposure times
Experimental: Western blot analysis identified the presence of the Reg receptor on the cytoplasmic membrane and the movement of the Reg Receptor from the cytoplasmic membrane through the cytoplasm to the nucleus in the presence of the Perle peptides. Cytoplasmic extracts were obtained in 10 mM HEPES (pH 8.0), 1 mM EDTA, 1.5 mM MgCl2, 10 mM KCl, 0.5 mM DTT, 200 mM sucrose and 0.5% Nonidet P-40. Nuclear extracts were obtained in 20 mM HEPES (pH 7.9), 0.75 mM MgCl2, 210 mM NaCl, 50 mM KCl, 1 mM EDTA, 10% glycerol, and 0.5 mM DTT. Both extraction buffers contained 0.5 mM PMSF, 1 μg/ml leupeptin, 1 μg/ml aprotinin, 2.5 mM Na4P2O7, 1 mM β-glycerophosphate, and 1 mM Na3VO4. […] Secondary signals were developed with chemiluminescence substrate and analyzed by autoradiography. […]
Human extra-islet ductal cells were seeded in T75 flasks in Dulbecco's Modified Eagle media containing 10% fetal bovine serum. […] In these cell extracts the total protein levels were determined, and 50 micrograms of total protein were used to perform the western blot analysis. […]
Analyses were performed from cytoplasmic extracts were obtained in 10 mM HEPES (pH 8.0), 1 mM EDTA, 1.5 mM MgCl2, 10 mM KCl, 0.5 mM DTT, 200 mM sucrose and 0.5% Nonidet P-40. […] Secondary signals were developed with chemiluminescence substrate and analyzed by autoradiography. […]

[4] = cited from earlier work
[5] = system: new small islets developing from non-endocrine tissue; conditions: cited from earlier work; for levels of new islet markers NGN3, NKX6.1, SOX9, and INS: five days after treatment; for increase in the volume of new small islets developing from non-endocrine tissue: in vivo
[6] = system: human pancreatic ductal tissue devoid of islets; conditions: cited from earlier work
[7] = system: STZ-rendered diabetic mice; conditions: cited from earlier work

## SEQ ID NO: 9: 20-amino acid binding site within the human Reg receptor (amino acids 117-136), used as immunogen (CKKSIENAKQDLLQLKNVIS; listed as Homo sapiens)
[1]
  response to the antigen according to the polyclonal titer reference range: high response

## VWIGLHDP (listed as Homo sapiens) [SEQ. ID NO. 4, 8-amino acid Perle peptide within human Reg1a, Reg1b and Reg3a]
Reg Receptor [2]
  strength of binding to the Reg Receptor relative to the other peptides tested: greatest binding
  direct binding to the Reg Receptor: bind directly
Reg Receptor [2]; listed as 8-amino acid peptide
  strength of binding to the Reg Receptor relative to the other peptides tested: strongest in binding
Reg Receptor [3]; listed as 8-amino acid Perle peptide
  translocation of the Reg Receptor from the cytoplasm to the nucleus: greatest ability
Reg Receptor [3]; listed as 8-amino-acid Perle Peptide
  translocation of the Reg Receptor from the cytoplasm to the nucleus: greatest impact

## INGAP: 15-amino acid peptide within the hamster Reg3gamma peptide sequence, prior art (IGLHDPSHGTLPNGS; listed as Mesocricetus auratus)
[4]; human type 1 patients, by day 56, p<0.001
  rise in stimulated C-peptide: 27%
[4]; type 1 patients, p=0.0057
  increase in stimulated C-peptide: 27%
[5]
  levels of new islet markers NGN3, NKX6.1, SOX9, and INS: increased levels
  increase in the volume of new small islets developing from non-endocrine tissue: 2 fold

## NVWIGLHDP (listed as Homo sapiens) [SEQ. ID NO. 1, 9-amino acid Perle peptide within human Reg1a and Reg1b]
Reg Receptor [2]
  direct binding to the Reg Receptor: demonstrated binding
Reg Receptor [2]; listed as 9-amino acid Perle peptide
  direct binding to the Reg Receptor: bind directly

## HIP: 14-amino Reg 3a peptide sequence (Human Proislet Peptide), prior art (IGLHDPTQGTEPNG; listed as Homo sapiens) [reference compound]
Reg Receptor [2]
  strength of binding to the Reg Receptor relative to the other peptides tested: same level of binding as the scrambled peptide
  direct binding to the Reg Receptor: no direct binding
[5]
  levels of new islet markers NGN3, NKX6.1, SOX9, and INS: increased levels
  increase in the volume of new small islets developing from non-endocrine tissue: 2 fold

## WIGLHDP (listed as Homo sapiens) [SEQ. ID NO. 7, 7-amino acid Perle peptide within human Reg1a, Reg1b, Reg3a and Reg4]
Reg Receptor [2]
  direct binding to the Reg Receptor: demonstrated binding
Reg Receptor [2]; listed as 7-amino acid Perle peptide
  direct binding to the Reg Receptor: bind directly

B1: Reg3a protein: human Reg3a gene protein given to ductal tissue and STZ diabetic mice in the inventor's earlier study (protein, listed as Homo sapiens)
chain: MLPPMALPSVSWMLLSCLMLLSQVQGEEPQRELPSARIRCPKGSKAYGSHCYALFLSPKSWTDADLACQKRPSGNLVSVLSGAEGSFVSSLVKSIGNSYSYVWIGLHDPTQGTEPNGEGWEWSSSDVMNYFAWERNPSTISSPGHCASLSRSTAFLRWKDYNCNVRLPYVCKFTD
[6]
  insulin concentrations: significant increase
[7]; STZ-rendered diabetic mice
  rise in total beta cells staining insulin: 3 fold
[7]; overnight fast, morning of day 39 of treatment, P=0.020 vs placebo
  fasting glucose: 111.00 ± 11.4 mg/dL
